Columns and labels:
[1] = target: T1, GST fusion of the FAT (focal adhesion targeting) domain of focal adhesion kinase, human FAK 892-1052 (human, UniProt Q05397 892-1052); experiment: BLI; GST-FAT immobilised on Anti-GST biosensors (20 μg/ml in PBS), paxillin constructs as analytes in PBS with Tween 20 (0.05%) and BSA (1%), Octet RED96, global fitting (B2 1:1 model, C35_1 to C35_3 2:1 model); settings: both partners purified
T1 construct: focal adhesion kinase (FAK), human, FAT domain, residues 892-1052; Cloned into pGEX4T1; For the pull-down provided by Dr. M. K. Hoellerer; for bio-layer interferometry the same construct was synthesised (GeneArt) and made by the same procedure; also called GST-FAT; GST labeled FAT; source: E. coli BL21 (DE3), purified using GST-4B beads
T1 sequence (looked up): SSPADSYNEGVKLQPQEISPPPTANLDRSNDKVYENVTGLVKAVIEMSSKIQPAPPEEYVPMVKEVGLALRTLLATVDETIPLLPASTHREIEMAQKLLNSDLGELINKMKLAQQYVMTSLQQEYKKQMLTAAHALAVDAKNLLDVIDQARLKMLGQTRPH

[2] = target: T1, GST fusion of the FAT (focal adhesion …); experiment: as above; settings: both partners purified; remark: listed apart in the source

B1: paxillin Construct C35_1 (54-189) (domain or fragment, human, UniProt P49023-2 54-189, looked up)
chain: SSEALNGTILDPLDQWQPSSSRFIHQQPQSSSPVYGSSAKTSSVSNPQDSVGSPCSRVGEEEHVYSFPNKQKSAEPSPTVMSTSLGSNLSELDRLLLELNAVQHNPPGFPADEANSSPPLPGALSPLYGVPETNSP
notes: human paxillin residues 54-189; Cloned into pET28a; source: E. coli BL21DE3, purified
What does the source list for B1?
stoichiometry N [1]: 2 construct per FAT; Kd [2]: 5.39 µM; koff [2]: 0.121 s⁻¹; kon [2]: 22500 M⁻¹ s⁻¹

B2: paxillin Construct C35_2 (79-189) (domain or fragment, human, UniProt P49023-2 79-189, looked up)
chain: QQPQSSSPVYGSSAKTSSVSNPQDSVGSPCSRVGEEEHVYSFPNKQKSAEPSPTVMSTSLGSNLSELDRLLLELNAVQHNPPGFPADEANSSPPLPGALSPLYGVPETNSP
notes: human paxillin residues 79-189; Cloned into pET28a; source: E. coli BL21DE3, purified
What does the source list for B2?
stoichiometry N [1]: 2 construct per FAT; Kd [2]: 16.9 µM; koff [2]: 0.164 s⁻¹; kon [2]: 9710 M⁻¹ s⁻¹

B3: paxillin Construct C35_3 (105-189) (domain or fragment, human, UniProt P49023-2 105-189, looked up)
chain: GSPCSRVGEEEHVYSFPNKQKSAEPSPTVMSTSLGSNLSELDRLLLELNAVQHNPPGFPADEANSSPPLPGALSPLYGVPETNSP
notes: human paxillin residues 105-189; Cloned into pET28a; source: E. coli BL21DE3, purified
Which results are given for B3?
stoichiometry N [1]: 2 construct per FAT; Kd [2]: 1.45 µM; koff [2]: 0.106 s⁻¹; kon [2]: 72900 M⁻¹ s⁻¹

B4: paxillin construct B2, expressed in E. coli for bio-layer interferometry (domain or fragment)
chain: SSEALNGTILDPLDQWQPSSSRFIHQQPQSSSPVYGSSAKTSSVSNPQDSVGSPCSRVGEEEHVYSFPNKQKSAEPSPTVMSTSLGSNLSELDRLLLELNAVQHNPPGFPADEANSSPPLPGALSPLYGVPETNSPLGGKAGPLTKEKPKRNGGRGLEDVRPSVESLLDELESSVPSPVPAITVNQGEMSSPQRVTSTQQQTRISASSATRELDELMASLSDFKFM
How did the “stoichiometry N” value [1] turn out when B4 was run?
Its value is 1 construct per FAT.

What about the Kd [2] of the same binder?
The Kd was 0.0361 µM.

What about the koff [2] of the same binder?
Its koff is 0.00171 s⁻¹.

What about the kon [2] of the same binder?
Its kon is 47500 M⁻¹ s⁻¹.

— PMC4771712, “Deciphering Mode of Action of Functionally Important Regions in the Intrinsically Disordered Paxillin (Residues 1-313) Using Its Interaction with FAT (Focal Adhesion Targeting Domain of Focal Adhesion Kinase)” (PLoS ONE, 2016)
